Earlier results as cited in paper PMC8256087.

Molecular target: FtsY (Escherichia coli) (UniProt P10121)
Sequence (P10121 2-497): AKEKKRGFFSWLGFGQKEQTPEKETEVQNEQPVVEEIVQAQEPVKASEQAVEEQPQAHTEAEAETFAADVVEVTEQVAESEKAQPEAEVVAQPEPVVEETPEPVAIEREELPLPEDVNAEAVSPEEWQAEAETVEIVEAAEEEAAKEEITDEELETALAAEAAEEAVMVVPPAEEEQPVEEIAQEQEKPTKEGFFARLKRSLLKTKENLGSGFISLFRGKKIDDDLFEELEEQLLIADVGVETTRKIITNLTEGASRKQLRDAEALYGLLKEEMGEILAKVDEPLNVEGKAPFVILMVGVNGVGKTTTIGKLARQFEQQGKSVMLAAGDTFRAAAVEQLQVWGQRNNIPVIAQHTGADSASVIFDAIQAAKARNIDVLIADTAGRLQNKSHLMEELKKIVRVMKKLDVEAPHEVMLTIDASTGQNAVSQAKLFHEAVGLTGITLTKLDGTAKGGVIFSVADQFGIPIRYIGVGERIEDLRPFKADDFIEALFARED

Chain of SecYEG translocon (P0AGA2 whole entry): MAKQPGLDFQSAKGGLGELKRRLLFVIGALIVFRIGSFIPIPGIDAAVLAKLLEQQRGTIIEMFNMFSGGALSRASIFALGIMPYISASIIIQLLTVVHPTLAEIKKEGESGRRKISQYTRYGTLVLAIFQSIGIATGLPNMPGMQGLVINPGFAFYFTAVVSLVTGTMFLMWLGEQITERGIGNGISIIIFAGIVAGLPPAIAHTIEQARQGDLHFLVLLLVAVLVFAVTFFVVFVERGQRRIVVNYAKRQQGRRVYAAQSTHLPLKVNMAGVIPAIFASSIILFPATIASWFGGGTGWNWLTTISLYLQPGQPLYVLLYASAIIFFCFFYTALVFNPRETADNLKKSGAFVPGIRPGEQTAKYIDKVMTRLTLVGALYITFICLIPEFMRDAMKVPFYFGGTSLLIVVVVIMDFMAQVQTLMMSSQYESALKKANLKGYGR
Chain of SecYEG translocon (P0AG96 whole entry, further chain): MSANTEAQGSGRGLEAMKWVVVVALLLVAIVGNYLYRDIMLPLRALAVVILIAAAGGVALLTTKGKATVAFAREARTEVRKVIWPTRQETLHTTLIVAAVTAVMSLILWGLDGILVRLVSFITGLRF
Chain of SecYEG translocon (P0AG99 whole entry, further chain): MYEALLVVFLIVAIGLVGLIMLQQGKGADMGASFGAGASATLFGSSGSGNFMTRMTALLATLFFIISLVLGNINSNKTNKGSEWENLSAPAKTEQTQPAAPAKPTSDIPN

Q: With SecYEG translocon (from UniProt P0AGA2) as the substance, how does the Kd read?
A: 200 nM
